We go through 7 molecules from patent US20240270813A1 (UNIVERSITY OF PITTSBURGH OF THE COMMONWEALTH SYSTEM OF …, published 2024).

Several values for one entry are separate records, joined by “and”; a condition that tells them apart may be missing. Equal values may be shown once. A value given as a limit tells only on which side of the number the result lay.

The chains are these.
B1: TCR C (TCR, V domains shown)
V domain 1: KQEVTQIPAALSVPEGENLVLNCSFTDSAIYNLQWFRQDPGKGLTSLLLIQSSQREQTSGRLNASLDKSSGRSTLYIAASQPGDSATYLCAVRPRTSGTYKYIFGTGTRLKVLA
V domain 2: DTGVSQDPRHKITKRGQNVTFRCDPISEHNRLYWYRQTLGQGPEFLTYFQNEAQLEKSRLLSDRFSAERPKGSFSTLEIQRTEQGDSAMYLCASTELSGNTIYFGEGSWLTVVE
B2: TCR F (TCR, V domains shown)
V domain 1: GENVEQHPSTLSVQEGDSAVIKCTYSDSASNYFPWYKQELGKRPQLIIDIRSNVGEKKDQRIAVTLNKTAKHFSLHITETQPEDSAVYFCAAHLTGGGNKLTFGTGTQLKVEL
V domain 2: DTGVSQDPRHKITKRGQNVTFRCDPISEHNRLYWYRQTLGQGPEFLTYFQNEAQLEKSRLLSDRFSAERPKGSFSTLEIQRTEQGDSAMYLCASSSRAGGETQYFGPGTRLLVLE
B3: TCR AH (TCR, V domains shown)
V domain 1: AQSVAQPEDQVNVAEGNPLTVKCTYSVSGNPYLFWYVQYPNRGLQFLLKYITGDNLVKGSYGFEAEFNKSQTSFHLKKPSALVSDSALYFCAVRVPTSGTYKYIFGTGTRLKVLA
V domain 2: DTGVSQDPRHKITKRGQNVTFRCDPISEHNRLYWYRQTLGQGPEFLTYFQNEAQLEKSRLLSDRFSAERPKGSFSTLEIQRTEQGDSAMYLCASSLVSGNEQFFGPGTRLTVLE
B4: TCR AG (TCR, V domains shown)
V domain 1: AQSVAQPEDQVNVAEGNPLTVKCTYSVSGNPYLFWYVQYPNRGLQFLLKYITGDNLVKGSYGFEAEFNKSQTSFHLKKPSALVSDSALYFCAVRTPTSGTYKYIFGTGTRLKVLA
V domain 2: DTGVSQDPRHKITKRGQNVTFRCDPISEHNRLYWYRQTLGQGPEFLTYFQNEAQLEKSRLLSDRFSAERPKGSFSTLEIQRTEQGDSAMYLCASSLVSGNEQFFGPGTRLTVLE
B5: TCR AF (TCR, V domains shown)
V domain 1: AQSVAQPEDQVNVAEGNPLTVKCTYSVSGNPYLFWYVQYPNRGLQFLLKYITGDNLVKGSYGFEAEFNKSQTSFHLKKPSALVSDSALYFCAVRSPTSGTYKYIFGTGTRLKVLA
V domain 2: DTGVSQDPRHKITKRGQNVTFRCDPISEHNRLYWYRQTLGQGPEFLTYFQNEAQLEKSRLLSDRFSAERPKGSFSTLEIQRTEQGDSAMYLCASSLVSGNEQFFGPGTRLTVLE
B6: TCR AE (TCR, V domains shown)
V domain 1: AQSVAQPEDQVNVAEGNPLTVKCTYSVSGNPYLFWYVQYPNRGLQFLLKYITGDNLVKGSYGFEAEFNKSQTSFHLKKPSALVSDSALYFCAVRCPTSGTYKYIFGTGTRLKVLA
V domain 2: DTGVSQDPRHKITKRGQNVTFRCDPISEHNRLYWYRQTLGQGPEFLTYFQNEAQLEKSRLLSDRFSAERPKGSFSTLEIQRTEQGDSAMYLCASSLVSGNEQFFGPGTRLTVLE
B7: TCR AI (TCR, V domains shown)
V domain 1: AQSVAQPEDQVNVAEGNPLTVKCTYSVSGNPYLFWYVQYPNRGLQFLLKYITGDNLVKGSYGFEAEFNKSQTSFHLKKPSALVSDSALYFCAVREPTSGTYKYIFGTGTRLKVLA
V domain 2: DTGVSQDPRHKITKRGQNVTFRCDPISEHNRLYWYRQTLGQGPEFLTYFQNEAQLEKSRLLSDRFSAERPKGSFSTLEIQRTEQGDSAMYLCASSLVNGNEQFFGPGTRLTVLE

In the first assay the target is T1, HA-1 “H” peptide (…) presented by HLA-A*02:01 on antigen presenting cells (human). Nature of the assay: cell-based or functional assay.
For the molecule B1, the “EC50 for CD69 Expression” value was < 10 ng/mL and < 10 nM. In the case of B2, the “EC50 for CD69 Expression” value was < 10 ng/mL and < 10 nM.

A further assay concerns the target T1, HA-1 “H” peptide (…) presented by …. Nature of the assay: cell-based or functional assay. This is another data set of the same source.
B3: the “EC50 values for CD69 Expression” value is 3.4 ng/mL. Same read-out and setting: in the case of B4 it was 2.27 ng/mL; in that of B5, 2.49 ng/mL; in that of B6, 2.77 ng/mL. In the case of B7, the “EC50 values for CD69 Expression” value stood at 9.2 ng/mL.
